Results published in article PMC12168134, “Improving the solubility of single domain antibodies using VH‐like hallmark residues” (Protein Science : A Publication of the Protein Society, 2025).

B1: Nlgn2 extracellular domain with His6 tag in the C-terminus (domain or fragment, mouse, UniProt Q69ZK9 15-678, looked up)
chain: QRGGGGPGGGAPGGPGLGLGSLGEERFPVVNTAYGRVRGVRRELNNEILGPVVQFLGVPYATPPLGARRFQPPEAPASWPGVRNATTLPPACPQNLHGALPAIMLPVWFTDNLEAAATYVQNQSEDCLYLNLYVPTEDGPLTKKRDEATLNPPDTDIRDSGKKPVMLFLHGGSYMEGTGNMFDGSVLAAYGNVIVVTLNYRLGVLGFLSTGDQAAKGNYGLLDQIQALRWLSENIAHFGGDPERITIFGSGAGASCVNLLILSHHSEGLFQKAIAQSGTAISSWSVNYQPLKYTRLLAAKVGCDREDSTEAVECLRRKSSRELVDQDVQPARYHIAFGPVVDGDVVPDDPEILMQQGEFLNYDMLIGVNQGEGLKFVEDSAESEDGVSASAFDFTVSNFVDNLYGYPEGKDVLRETIKFMYTDWADRDNGEMRRKTLLALFTDHQWVAPAVATAKLHADYQSPVYFYTFYHHCQAEGRPEWADAAHGDELPYVFGVPMVGATDLFPCNFSKNDVMLSAVVMTYWTNFAKTGDPNQPVPQDTKFIHTKPNRFEEVVWSKFNSKEKQYLHIGLKPRVRDNYRANKVAFWLELVPHLHNLHTELFTTTTRLPPYATRWPPRTPGPGTSGTRRPPPPATLPPESDIDLGPRAYDRFPGDSRDYSTELS
notes: Neuroligin 2 (Nlgn2), mouse, extracellular domain, residues 15-678; Construct used to immunise the alpaca; main SEC peak was a dimer; also called recombinant Nlgn2 extracellular domain; mouse Nlgn2 (15-678); source: Expi293F cells, supernatant, purified (Ni-NTA, SEC); not shown: His6, C-terminal, kept
B2: Biotinylated recombinant Nlgn2 extracellular domain with Avitag (domain or fragment, mouse, UniProt Q69ZK9 15-678, looked up)
chain: QRGGGGPGGGAPGGPGLGLGSLGEERFPVVNTAYGRVRGVRRELNNEILGPVVQFLGVPYATPPLGARRFQPPEAPASWPGVRNATTLPPACPQNLHGALPAIMLPVWFTDNLEAAATYVQNQSEDCLYLNLYVPTEDGPLTKKRDEATLNPPDTDIRDSGKKPVMLFLHGGSYMEGTGNMFDGSVLAAYGNVIVVTLNYRLGVLGFLSTGDQAAKGNYGLLDQIQALRWLSENIAHFGGDPERITIFGSGAGASCVNLLILSHHSEGLFQKAIAQSGTAISSWSVNYQPLKYTRLLAAKVGCDREDSTEAVECLRRKSSRELVDQDVQPARYHIAFGPVVDGDVVPDDPEILMQQGEFLNYDMLIGVNQGEGLKFVEDSAESEDGVSASAFDFTVSNFVDNLYGYPEGKDVLRETIKFMYTDWADRDNGEMRRKTLLALFTDHQWVAPAVATAKLHADYQSPVYFYTFYHHCQAEGRPEWADAAHGDELPYVFGVPMVGATDLFPCNFSKNDVMLSAVVMTYWTNFAKTGDPNQPVPQDTKFIHTKPNRFEEVVWSKFNSKEKQYLHIGLKPRVRDNYRANKVAFWLELVPHLHNLHTELFTTTTRLPPYATRWPPRTPGPGTSGTRRPPPPATLPPESDIDLGPRAYDRFPGDSRDYSTELS
modifications: biotin on the Avitag (biotinylated with BirA)
notes: Neuroligin 2 (Nlgn2), extracellular domain; residues 15-678 of mouse Nlgn2 are stated only for the His6 construct used for immunisation, not for this Avitag construct; probably the same; Eluted as a dimeric peak in SEC; also called Nlgn2 with Avitag; Biotinylated Nlgn2; source: purified by SEC, biotinylated with BirA; not shown: Avitag, C-terminal, kept

Key:
[1] = biological target: the molecule itself; assay: SEC; Hiload 16/600 Superdex 200 pg in PBS; Nlgn2 extracellular domain with His6
[2] = biological target: the molecule itself; assay: SEC; Nlgn2 with Avitag; 10 mM HEPES-NaOH pH 7.4, 150 mM NaCl, 3 mM CaCl2

Row | Protein | stoichiometry N [1] | stoichiometry N [2]
1 | B1 | 2 | –
2 | B2 | – | 2
